In patent publication US7871610B2, “Antibodies to Tie1 ectodomain” (Dyax Corp., priority 2003, dated 2011):

What was measured:
Mouse Tie 1-Fc = biological target: T1, Mouse Tie 1-Fc (Mus musculus, UniProt Q06806); assay: BIAcore, coated E3 IgGs with recombinant mouse Tie-1 Fc; assay type: binding; details: IgG, mouse Tie1-Fc
T1 sequence (Q06806 23-755 limits assumed): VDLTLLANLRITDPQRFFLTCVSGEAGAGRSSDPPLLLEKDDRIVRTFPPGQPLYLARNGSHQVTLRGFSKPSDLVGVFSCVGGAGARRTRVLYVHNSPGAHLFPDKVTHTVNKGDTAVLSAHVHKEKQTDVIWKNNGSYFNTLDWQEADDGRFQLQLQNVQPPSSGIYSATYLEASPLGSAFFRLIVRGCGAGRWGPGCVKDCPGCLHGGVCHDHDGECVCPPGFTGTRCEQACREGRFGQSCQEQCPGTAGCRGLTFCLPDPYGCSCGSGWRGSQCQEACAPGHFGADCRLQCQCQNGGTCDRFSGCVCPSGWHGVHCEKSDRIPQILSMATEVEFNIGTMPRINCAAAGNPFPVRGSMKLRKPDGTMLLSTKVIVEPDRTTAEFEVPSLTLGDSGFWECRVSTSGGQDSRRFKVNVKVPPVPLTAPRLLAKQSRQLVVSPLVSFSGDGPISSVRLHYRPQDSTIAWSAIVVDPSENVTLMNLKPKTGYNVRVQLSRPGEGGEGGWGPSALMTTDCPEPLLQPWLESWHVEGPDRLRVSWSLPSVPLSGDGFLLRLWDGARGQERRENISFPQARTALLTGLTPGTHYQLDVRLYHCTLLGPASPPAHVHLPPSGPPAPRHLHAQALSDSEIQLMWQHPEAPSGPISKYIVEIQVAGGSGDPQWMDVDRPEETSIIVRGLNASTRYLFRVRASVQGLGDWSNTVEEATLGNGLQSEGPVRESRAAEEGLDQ
Experimental: In order to evaluate if the binding behavior had been affected in any way by the conversion of the somatic mutations back to germline, the germlined antibody was produced and tested as a IgG. The germlined E3 was reformatted to an IgG as described. This was then used to transiently transfect HEK293T cells using established procedures. The IgG was purified from the culture supernatant using protein A column chromatography using established procedures and the subsequent IgG was then tested for binding activity using surface plasmon resonance (BIAcore). The germlined E3 IgG1 stock solution 0.63 mg/ml (2146-002) was diluted 1/50 in a buffer of pH 4.5 and the parental E3 IgG1 stock solution 0.56 mg/ml (2143-001) was diluted 1/50 in a buffer of pH 4.5. The IgG were directly coated via onto a CM5 chip. The surface of the chips was activated with a 7 minute pulse of 0.05M NHS/0.2M EDC and the IgG was flowed over until 780RU germlined E3-IgG and 728 non germlined E3 IgG was coated onto the surface. All flow cells were subsequently deactivated with a 7 minute pulse of 1M ethanolamine hydrochloride pH8.5. All analysis was performed in HBS buffer. […] All samples were run and analyzed in duplicate
Sensorgrams were analyzed using the simultaneous ka/kd fitting program with 1:1 model in the BIAEVALUATION™ software 3.1.

Tie-1 = assay: Immunohistochemistry of mouse SW480 xenograft tumor sections; details: biotinylated E3 IgG1 10 μg/ml, paraffin sections
Experimental: We determined if antibody E3 binds to mouse endothelial cells in mouse xenographs. Immunohistochemistry was performed with biotinylated E3 IgG1 (a,z allotype) antibody and control antibodies anti-CD31 (endothelial cell specific marker) and anti-PCNA (proliferating cell nuclear antigen). Formalin-fixed tumor tissues from a mouse-xenograph containing SW480 cells (ATCC) were tested for the binding pattern of the human anti-Tie1 antibody E3. 5 μm sections of paraffin embedded tissues were deparaffinized, rehydrated and pretreated with warm the citrate buffer (0.01 M sodium citrate, pH6 at 95° C.) for 45 min. The slides were cooled down in fresh citrate buffer for 20 min and rinsed with distilled water. The slides were hydrogen peroxide treated, (0.3% H2O2 in PBS), and preincubated with PBS, 5% FCS, 5% heat inactivated human serum (HS) for 1 hour. Between antibody incubations slides were washed 3 times 5 minutes in PBS. Biotinylated antibodies E3 and A2-SV were diluted to a concentration of 10 μg/ml in PBS, 10% HS and incubated for 1 hour at RT. Slides were then incubated with an avidin-HRP (Dako) for 30 minutes at room temperature. Staining was detected by AEC (Vector Laboratories, Burlingame) and H2O2. The peroxidase reaction was stopped with water and slides were counter-stained with haematoxylin. The tissues were evaluated for their binding reactivity.

B1: E3: human anti-Tie1 antibody from Fab phage library; HC SEQ ID NO:114, LC SEQ ID NO:116 (antibody, V domains shown)
VH: EVQLLESGGGLVQPGGSLRLSCAASGFTFSMYGMVWVRQAPGKGLEWVSVISPSGGNTGYADSVKGRFTISRDNSKNTLYLQVNSLRAEDTAVYYCARAPRGYSYGYYYWGQGTLVTVSSASTKGPSVFPLAPSSKSTSGG
VL: DIQMTQSPLSLSASVGDRVTITCRASQGIGHYLAWYQQKPGKVPKLLIYTASTLQSGVPSRFSGSGSGTDFTLTINSLQPEDVATYYCQQFNSYPHTFGQGTRLDIK
modifications: Synthetically generated peptide
Mouse Tie 1-Fc
  effect of germlining on binding activity: minimal impact on the binding activity
Tie-1
  staining pattern in mouse xenograft tumor tissue: consistent with staining of mouse endothelial cell Tie-1
